Source: paper PMC7261492, “ISCU interacts with NFU1, and ISCU[4Fe-4S] transfers its Fe-S cluster to NFU1 leading to the production of holo-NFU1” (Journal of structural biology, 2020)
One block for each molecule: values may come before it.

Key:
[1] = target: human apo-NFU1 (human) (UniProt Q9UMS0); assay: ITC; Nano ITC, 25 °C, HNT buffer; syringe 0.8 mM ISCU, cell (169 μL) 0.03 mM NFU1; 20 injections of 2.5 μL; fitted to a 1:1 binding mode
[2] = target: human apo-NFU1 (human) (UniProt Q9UMS0); assay: SAXS; apo-NFU1:ISCU complex isolated by SEC, dialysed against HNT buffer, 2-8 mg/mL, 298 K; molecular mass by the Vc approach
[3] = target: T1, human ISCU (human), Q9H1K1; assay: SEC; anaerobic; mixture of [U-15N]-apo-NFU1 and ISCU[4Fe-4S] incubated 30 min, HiLoad Superdex 200 PG, HNT buffer, 1 mL/min; fractions analysed by SDS-PAGE; details: remark: other sources report otherwise
T1 chain: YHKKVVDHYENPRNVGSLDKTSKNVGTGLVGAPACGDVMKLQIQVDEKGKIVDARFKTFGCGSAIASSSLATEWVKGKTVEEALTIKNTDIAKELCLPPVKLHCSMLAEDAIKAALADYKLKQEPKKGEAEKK

[4] = target: the molecule itself; assay: as above

Kd [1]: 1100 nM
stoichiometry N [2]: 1
Molecule: human ISCU (from UniProt Q9H1K1 35-167) (natural protein)

stoichiometry N [3]: 2
B1: human ISCU, Q9H1K1 35-167 (natural protein)
chain: T1 chain

B2: human holo-NFU1 (natural protein, UniProt Q9UMS0 10-254, looked up)
chain: GAAAVAAGLRRRFCHMLKNPYTIKKQPLHQFVQRPLFPLPAAFYHPVRYMFIQTQDTPNPNSLKFIPGKPVLETRTMDFPTPAAAFRSPLARQLFRIEGVKSVFFGPDFITVTKENEELDWNLLKPDIYATIMDFFASGLPLVTEETPSGEAGSEEDDEVVAMIKELLDTRIRPTVQEDGGDVIYKGFEDGIVQLKLQGSCTSCPSSIITLKNGIQNMLQFYIPEVEGVEQVMDDESDEKEANSP
modifications: [4Fe-4S] cluster bound by C195 and C198; two NFU1 chains supply the four cysteine ligands of one cluster
notes: NFU1, human, with both the N-terminal domain (NTD) and the C-terminal domain (CTD); Same chain as m2 with the [4Fe-4S] cluster; trimer of cluster-linked dimers (hexamer, 160 kDa); also called NFU1[4Fe-4S]; hexameric holo-NFU1; source: prepared as described earlier (Cai et al., 2016); in the anaerobic SEC formed by adding ISCU[4Fe-4S] to [U-15N]-apo-NFU1
stoichiometry N [4]: 6
